Data reported in US20250262210A1 (TRUSTEES OF COLUMBIA UNIVERSITY IN THE CITY OF NEW YORK, published 2025).

Biological target: T1, FKBP15 (human, UniProt Q5T1M5 1-1219, limits assumed)
T1 sequence (looked up): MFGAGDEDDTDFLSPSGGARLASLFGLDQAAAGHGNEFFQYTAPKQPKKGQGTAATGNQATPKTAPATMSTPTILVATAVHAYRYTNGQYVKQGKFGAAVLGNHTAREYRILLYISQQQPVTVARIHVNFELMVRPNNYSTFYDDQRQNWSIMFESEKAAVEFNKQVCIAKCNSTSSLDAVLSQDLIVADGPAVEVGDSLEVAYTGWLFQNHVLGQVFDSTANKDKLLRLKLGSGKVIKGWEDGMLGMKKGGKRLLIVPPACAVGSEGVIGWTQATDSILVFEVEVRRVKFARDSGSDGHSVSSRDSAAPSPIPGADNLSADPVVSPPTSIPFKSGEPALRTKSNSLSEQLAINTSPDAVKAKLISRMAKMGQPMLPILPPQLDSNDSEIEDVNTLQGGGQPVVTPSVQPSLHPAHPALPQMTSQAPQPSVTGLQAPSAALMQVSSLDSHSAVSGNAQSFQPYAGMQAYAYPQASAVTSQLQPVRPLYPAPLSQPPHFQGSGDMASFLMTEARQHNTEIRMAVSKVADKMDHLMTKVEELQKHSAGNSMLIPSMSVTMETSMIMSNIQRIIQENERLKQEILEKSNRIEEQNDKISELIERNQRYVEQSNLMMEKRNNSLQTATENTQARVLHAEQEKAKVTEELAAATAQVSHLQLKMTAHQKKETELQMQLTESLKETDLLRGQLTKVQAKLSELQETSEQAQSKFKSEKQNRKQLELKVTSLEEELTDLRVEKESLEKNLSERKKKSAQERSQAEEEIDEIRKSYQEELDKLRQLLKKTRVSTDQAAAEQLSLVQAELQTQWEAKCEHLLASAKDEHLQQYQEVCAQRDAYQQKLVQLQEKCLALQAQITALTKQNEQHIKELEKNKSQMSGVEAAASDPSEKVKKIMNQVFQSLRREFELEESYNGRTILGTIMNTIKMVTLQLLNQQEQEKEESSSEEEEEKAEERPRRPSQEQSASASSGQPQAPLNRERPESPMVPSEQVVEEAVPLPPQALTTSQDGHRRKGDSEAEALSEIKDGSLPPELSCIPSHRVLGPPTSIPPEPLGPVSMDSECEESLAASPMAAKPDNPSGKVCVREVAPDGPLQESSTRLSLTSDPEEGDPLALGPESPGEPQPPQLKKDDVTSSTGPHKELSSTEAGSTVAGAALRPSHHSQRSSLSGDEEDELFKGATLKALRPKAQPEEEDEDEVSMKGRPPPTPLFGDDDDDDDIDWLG
Assay: IP/MS, LZTR1 R810W-FLAG, U87
Procedure, shortened: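 Read-out: spectral counts from LC-MS/MS (Orbitrap Fusion) after MaxQuant identification. Variable modifications were Met oxidation, protein N-terminal acetylation and N/Q deamidation.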

B1: LZTR1 R810W-FLAG (other, human, UniProt Q8N653 1-840, looked up)
chain: MAGPGSTGGQIGAAALAGGARSKVAPSVDFDHSCSDSVEYLTLNFGPFETVHRWRRLPPCDEFVGARRSKHTVVAYKDAIYVFGGDNGKTMLNDLLRFDVKDCSWCRAFTTGTPPAPRYHHSAVVYGSSMFVFGGYTGDIYSNSNLKNKNDLFEYKFATGQWTEWKIEGRLPVARSAHGATVYSDKLWIFAGYDGNARLNDMWTIGLQDRELTCWEEVAQSGEIPPSCCNFPVAVCRDKMFVFSGQSGAKITNNLFQFEFKDKTWTRIPTEHLLRGSPPPPQRRYGHTMVAFDRHLYVFGGAADNTLPNELHCYDVDFQTWEVVQPSSDSEVGGAEVPERACASEEVPTLTYEERVGFKKSRDVFGLDFGTTSAKQPTQPASELPSGRLFHAAAVISDAMYIFGGTVDNNIRSGEMYRFQFSCYPKCTLHEDYGRLWESRQFCDVEFVLGEKEECVQGHVAIVTARSRWLRRKITQARERLAQKLEQEAAPVPREAPGVAAGGARPPLLHVAIREAEARPFEVLMQFLYTDKIKYPRKGHVEDVLLIMDVYKLALSFQLCRLEQLCRQYIEASVDLQNVLVVCESAARLQLSQLKEHCLNFVVKESHFNQVIMMKEFERLSSPLIVEIVRRKQQPPPRTPLDQPVDIGTSLIQDMKAYLEGAGAEFCDITLLLDGHPRPAHKAILAARSSYFEAMFRSFMPEDGQVNISIGEMVPSRQAFESMLRYIYYGEVNMPPEDSLYLFAAPYYYGFYNNRLQAYCKQNLEMNVTVQNVLQILEAADKTQALDMKRHCLHIIVHQFTKVSKLPTLWSLSQQLLLDIIDSLASHISDKQCAELGADI
notes: Stably expressed in U87 cells by lentivirus; also called LZTR1-FLAG-R810W; LZTR1 RW; not shown: FLAG tag
B1: binds.
